Test results from paper PMC4678859, “PARN deadenylase is involved in miRNA-dependent degradation of TP53 mRNA in mammalian cells” (Nucleic Acids Research, 2015).

Biological target: GST-Ago-2 (full-length recombinant Ago-2) (UniProt Q9UKV8 1-859)
Experiment: cell-based or functional assay

Sequence of GST-Ago-2 (full-length recombinant Ago-2) (Q9UKV8 whole entry): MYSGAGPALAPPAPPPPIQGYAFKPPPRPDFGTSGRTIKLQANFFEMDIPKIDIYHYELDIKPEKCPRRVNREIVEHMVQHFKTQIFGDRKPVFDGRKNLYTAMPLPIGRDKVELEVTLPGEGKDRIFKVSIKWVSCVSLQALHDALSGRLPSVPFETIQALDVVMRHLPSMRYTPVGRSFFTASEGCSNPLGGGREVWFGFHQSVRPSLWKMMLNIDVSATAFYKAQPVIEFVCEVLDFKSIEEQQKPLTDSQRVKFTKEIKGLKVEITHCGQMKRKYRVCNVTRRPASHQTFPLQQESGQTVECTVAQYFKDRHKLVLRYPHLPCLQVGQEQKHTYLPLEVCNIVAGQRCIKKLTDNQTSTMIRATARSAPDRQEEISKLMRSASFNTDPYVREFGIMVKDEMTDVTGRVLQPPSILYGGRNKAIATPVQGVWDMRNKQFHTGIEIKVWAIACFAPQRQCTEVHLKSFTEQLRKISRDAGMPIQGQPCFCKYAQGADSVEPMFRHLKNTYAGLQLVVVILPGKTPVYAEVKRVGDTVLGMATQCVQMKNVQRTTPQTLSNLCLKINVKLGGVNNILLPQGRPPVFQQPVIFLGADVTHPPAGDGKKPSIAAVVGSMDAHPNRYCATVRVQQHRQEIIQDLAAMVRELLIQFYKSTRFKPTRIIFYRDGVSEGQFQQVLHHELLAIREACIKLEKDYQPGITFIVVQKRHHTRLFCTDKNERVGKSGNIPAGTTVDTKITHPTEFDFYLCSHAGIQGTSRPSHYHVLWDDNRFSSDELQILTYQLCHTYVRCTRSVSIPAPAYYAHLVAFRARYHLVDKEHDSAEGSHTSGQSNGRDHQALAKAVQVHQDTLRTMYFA

in vitro reconstituted deadenylation of radiolabeled L3(A30) RNA substrate, limiting amounts of His-PARN and increasing amounts of GST-Ago-2: 2.4 fold
B1: His-PARN (full-length recombinant PARN) (enzyme, UniProt O95453 1-639, looked up)
chain: MEIIRSNFKSNLHKVYQAIEEADFFAIDGEFSGISDGPSVSALTNGFDTPEERYQKLKKHSMDFLLFQFGLCTFKYDYTDSKYITKSFNFYVFPKPFNRSSPDVKFVCQSSSIDFLASQGFDFNKVFRNGIPYLNQEEERQLREQYDEKRSQANGAGALSYVSPNTSKCPVTIPEDQKKFIDQVVEKIEDLLQSEENKNLDLEPCTGFQRKLIYQTLSWKYPKGIHVETLETEKKERYIVISKVDEEERKRREQQKHAKEQEELNDAVGFSRVIHAIANSGKLVIGHNMLLDVMHTVHQFYCPLPADLSEFKEMTTCVFPRLLDTKLMASTQPFKDIINNTSLAELEKRLKETPFNPPKVESAEGFPSYDTASEQLHEAGYDAYITGLCFISMANYLGSFLSPPKIHVSARSKLIEPFFNKLFLMRVMDIPYLNLEGPDLQPKRDHVLHVTFPKEWKTSDLYQLFSAFGNIQISWIDDTSAFVSLSQPEQVKIAVNTSKYAESYRIQTYAEYMGRKQEEKQIKRKWTEDSWKEADSKRLNPQCIPYTLQNHYYRNNSFTAPSTVGKRNLSPSQEEAGLEDGVSGEISDTELEQTDSCAEPLSEGRKKAKKLKRMKKELSPAGSISKNSPATLFEVPDTW
